Laboratory results as given in article PMC2836553.
Read-outs that look alike come from different tables or passages of the source.

What was measured:
Experiment in all cases: FRET
[1] = molecular target: T1, XPF-Δnuc (HhH2 domain);PCNA heterotrimer (Sulfolobus solfataricus P2;Sulfolobus …, UniProt Q7LXL5;P57766;Q97Z84;P57765 =M+148-233;1-249;1-245;1-244, internal_change|)
T1 sequence 1: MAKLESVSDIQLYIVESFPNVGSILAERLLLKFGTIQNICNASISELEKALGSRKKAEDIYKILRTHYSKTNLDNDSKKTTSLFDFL
T1 sequence 2: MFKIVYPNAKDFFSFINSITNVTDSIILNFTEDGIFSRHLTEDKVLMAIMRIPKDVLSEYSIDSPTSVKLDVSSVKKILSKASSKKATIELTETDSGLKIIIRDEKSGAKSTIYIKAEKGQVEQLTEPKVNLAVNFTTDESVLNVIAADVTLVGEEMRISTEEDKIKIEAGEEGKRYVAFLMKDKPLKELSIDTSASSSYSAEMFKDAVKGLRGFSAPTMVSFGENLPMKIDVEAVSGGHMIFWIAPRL
T1 sequence 3: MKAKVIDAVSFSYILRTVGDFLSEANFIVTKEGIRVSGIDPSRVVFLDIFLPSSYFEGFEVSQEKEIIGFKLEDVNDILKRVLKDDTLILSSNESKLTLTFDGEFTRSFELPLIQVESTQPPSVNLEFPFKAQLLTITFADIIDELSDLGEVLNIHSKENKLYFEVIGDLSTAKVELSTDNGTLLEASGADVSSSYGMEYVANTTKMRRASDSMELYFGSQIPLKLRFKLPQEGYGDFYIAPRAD
T1 sequence 4: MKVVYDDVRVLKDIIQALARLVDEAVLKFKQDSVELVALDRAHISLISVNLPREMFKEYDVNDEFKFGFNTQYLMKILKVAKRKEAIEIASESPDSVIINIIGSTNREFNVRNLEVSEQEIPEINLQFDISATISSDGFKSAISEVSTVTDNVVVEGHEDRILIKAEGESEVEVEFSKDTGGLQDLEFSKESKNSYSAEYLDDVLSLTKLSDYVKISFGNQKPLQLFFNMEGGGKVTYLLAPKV

XPF-wt;PCNA heterotrimer [2] = molecular target: T2, XPF-wt;PCNA heterotrimer (Saccharolobus (Sulfolobus) …, UniProt Q7LXL5;P57766;Q97Z84;P57765 1-233;1-249;1-245;1-244, |)
T2 sequence 1: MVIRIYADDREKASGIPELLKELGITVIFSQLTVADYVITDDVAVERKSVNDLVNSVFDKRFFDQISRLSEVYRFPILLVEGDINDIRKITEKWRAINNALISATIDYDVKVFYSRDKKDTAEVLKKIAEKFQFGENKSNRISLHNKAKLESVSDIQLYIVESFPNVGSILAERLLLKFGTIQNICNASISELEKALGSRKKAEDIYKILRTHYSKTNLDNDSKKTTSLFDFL
T2 sequence 2: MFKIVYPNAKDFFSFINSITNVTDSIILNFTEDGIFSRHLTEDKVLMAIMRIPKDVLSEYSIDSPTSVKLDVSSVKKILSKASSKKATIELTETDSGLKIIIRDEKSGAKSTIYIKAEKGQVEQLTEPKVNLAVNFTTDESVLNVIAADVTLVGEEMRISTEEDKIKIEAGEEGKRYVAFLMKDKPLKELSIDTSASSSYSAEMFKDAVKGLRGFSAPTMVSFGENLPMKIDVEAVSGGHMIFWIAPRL
T2 sequence 3: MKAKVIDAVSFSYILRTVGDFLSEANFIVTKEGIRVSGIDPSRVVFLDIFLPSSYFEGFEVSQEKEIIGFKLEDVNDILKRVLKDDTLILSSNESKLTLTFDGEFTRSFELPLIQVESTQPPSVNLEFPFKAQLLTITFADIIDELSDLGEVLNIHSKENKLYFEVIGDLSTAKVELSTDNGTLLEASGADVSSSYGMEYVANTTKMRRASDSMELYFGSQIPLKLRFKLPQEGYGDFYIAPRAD
T2 sequence 4: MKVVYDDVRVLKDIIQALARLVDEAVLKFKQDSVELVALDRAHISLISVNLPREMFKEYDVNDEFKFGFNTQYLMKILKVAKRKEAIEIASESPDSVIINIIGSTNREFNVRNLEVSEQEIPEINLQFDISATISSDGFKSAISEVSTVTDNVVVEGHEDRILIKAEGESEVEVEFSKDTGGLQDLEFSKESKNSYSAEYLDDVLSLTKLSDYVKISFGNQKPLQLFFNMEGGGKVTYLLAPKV

XPF-Δnuc (HhH2 domain) [3] = molecular target: T3, XPF-Δnuc (HhH2 domain) (Sulfolobus solfataricus P2, UniProt Q7LXL5 =M+148-233, internal_change)
T3 sequence: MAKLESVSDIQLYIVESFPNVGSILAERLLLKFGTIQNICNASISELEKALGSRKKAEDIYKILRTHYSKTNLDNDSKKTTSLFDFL

XPF-wt [4] = molecular target: T4, XPF-wt (Saccharolobus (Sulfolobus) solfataricus, UniProt Q7LXL5 1-233)
T4 sequence: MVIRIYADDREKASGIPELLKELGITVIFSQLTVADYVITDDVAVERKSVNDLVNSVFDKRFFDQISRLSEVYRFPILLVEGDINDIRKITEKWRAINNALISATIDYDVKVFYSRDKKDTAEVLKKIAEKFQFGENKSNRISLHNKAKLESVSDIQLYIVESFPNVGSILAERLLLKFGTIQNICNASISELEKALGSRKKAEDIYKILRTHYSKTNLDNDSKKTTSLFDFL

XPF-ΔPIP (Δ6 XPF) [5] = molecular target: T5, XPF-ΔPIP (Δ6 XPF) (Sulfolobus solfataricus, UniProt Q7LXL5 1-227)
T5 sequence: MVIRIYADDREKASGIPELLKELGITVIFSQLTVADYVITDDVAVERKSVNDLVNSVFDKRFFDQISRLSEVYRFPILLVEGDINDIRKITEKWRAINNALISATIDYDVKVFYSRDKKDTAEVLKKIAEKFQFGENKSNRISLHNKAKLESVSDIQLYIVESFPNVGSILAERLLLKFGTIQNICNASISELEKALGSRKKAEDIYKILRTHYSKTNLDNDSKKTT

XPF-wt;PCNA heterotrimer [6] = molecular target: T2, XPF-wt;PCNA heterotrimer; remark: listed apart in the source
XPF-ΔPIP (Δ6 XPF) [7] = molecular target: T5, XPF-ΔPIP (Δ6 XPF); remark: listed apart in the source
XPF-wt [8] = molecular target: T4, XPF-wt; remark: listed apart in the source
XPF-ΔPIP (Δ6 XPF) [9] = molecular target: T5, XPF-ΔPIP (Δ6 XPF); remark: listed apart in the source
XPF-Δnuc (HhH2 domain) [10] = molecular target: T3, XPF-Δnuc (HhH2 domain); remark: listed apart in the source

B1: 3' flap, three vectors (global fit) (structured_DNA)
DNA 1: AGCCCGACAGCAGTCAGAGCTTGCTAGGACGGACGGT
DNA 2: ACCGTCCGTCCTAGCAAGCATTTTTTT
DNA 3: TCTGACTGCTGTCGGGCT
modifications: dye positions as in Flap-12, Flap-13 and Flap-23
Kd [1]: 110 ± 10 nM | Kd (XPF-wt;PCNA heterotrimer [2]): 60 ± 10 nM | Kd (XPF-Δnuc (HhH2 domain) [3]): 8000 ± 1000 nM | Kd (XPF-wt [4]): 5300 ± 600 nM | Kd (XPF-ΔPIP (Δ6 XPF) [5]): 3100 ± 500 nM

B2: Flap-23 (structured_DNA)
DNA 1: AGCCCGACAGCAGTCAGAGCTTGCTAGGACGGACGGT
DNA 2: ACCGTCCGTCCTAGCAAGCATTTTTTT
DNA 3: TCTGACTGCTGTCGGGCT
modifications: 3' Cy3 on B strand; internal fluorescein-dT at T10 of C strand
Kd (XPF-wt;PCNA heterotrimer [6]): 50 ± 10 nM | Kd (XPF-ΔPIP (Δ6 XPF) [7]): 1600 ± 200 nM | Kd (XPF-wt [8]): 5000 ± 600 nM | Kd (XPF-ΔPIP (Δ6 XPF) [9]): 1800 ± 300 nM

B3: Flap-13 (structured_DNA)
DNA 1: AGCCCGACAGCAGTCAGAGCTTGCTAGGACGGACGGT
DNA 2: ACCGTCCGTCCTAGCAAGCATTTTTTT
DNA 3: TCTGACTGCTGTCGGGCT
modifications: amino-C6-dT at T9 of B strand; internal fluorescein-dT at T10 of C strand
Kd (XPF-wt;PCNA heterotrimer [6]): 60 ± 10 nM | Kd (XPF-Δnuc (HhH2 domain) [10]): 8000 ± 2000 nM | Kd (XPF-wt [8]): 9200 ± 3000 nM

B4: Flap-12 (structured_DNA)
DNA 1: AGCCCGACAGCAGTCAGAGCTTGCTAGGACGGACGGT
DNA 2: ACCGTCCGTCCTAGCAAGCATTTTTTT
DNA 3: TCTGACTGCTGTCGGGCT
modifications: internal fluorescein-dT at T9 of B strand; 3' amino modifier on B strand
Kd (XPF-wt [8]): 2600 ± 400 nM | Kd (XPF-ΔPIP (Δ6 XPF) [9]): 1600 ± 600 nM
